Test results reported in article PMC4335501.
pKd: −log10 of the molar value.

Assays:
[1] = molecular target: 52SFK N308E (human adenovirus type 52 (HAdV-52)); assay: gas-phase electrophoretic mobility molecular analysis (GEMMA); 20 mM ammonium acetate pH 7.8, 0.005% Tween 20; 0.05 mg/ml (52SFK wt, mutants 1-3) or 0.06 mg/ml (mutants 4-6)
[2] = molecular target: HAdV-52 virion (strain TB3-2243) (human adenovirus type 52 (HAdV-52)); assay: radioligand binding; competition: soluble CAR-D1 preincubated with 35S-labelled virions for 1 h on ice before the virions were added to A549 cells; read-out is the cell-bound radioactivity; concentration of CAR-D1 not stated
[3] = molecular target: HAdV-5 virion (Ad75; source ATCC); assay: as above
[4] = molecular target: 52SFK N318A (human adenovirus type 52 (HAdV-52)); assay: gas-phase electrophoretic mobility molecular analysis (GEMMA); 20 mM ammonium acetate pH 7.8, 0.005% Tween 20; 0.05 mg/ml (52SFK wt, mutants 1-3) or 0.06 mg/ml (mutants 4-6)
[5] = molecular target: 52SFK R316A (human adenovirus type 52 (HAdV-52)); assay: as above
[6] = molecular target: 52SFK R316A/N318A (human adenovirus type 52 (HAdV-52)); assay: as above
[7] = molecular target: soluble CAR-D1; assay: SPR; CAR-D1D2 Fc chimera or CAR-D1 amine-coupled to CM5 (900-1100 RU); 52LFK or 52SFK as analytes, two-fold series 8 nM to 2 μM; 25°C; HBS-EP+ (10 mM HEPES, 150 mM NaCl, 3 mM EDTA, 0.005% P20, pH 7.4); Biacore T100
[8] = molecular target: Recombinant human CAR (CXADR Fc chimera; full length extracellular D1D2 domain) (human) (UniProt P78310); assay: as above
[9] = molecular target: 52SFK R316E/N318A (human adenovirus type 52 (HAdV-52)); assay: gas-phase electrophoretic mobility molecular analysis (GEMMA); 20 mM ammonium acetate pH 7.8, 0.005% Tween 20; 0.05 mg/ml (52SFK wt, mutants 1-3) or 0.06 mg/ml (mutants 4-6)
[10] = molecular target: 52SFK R316E (human adenovirus type 52 (HAdV-52)); assay: as above
[11] = molecular target: HAdV-52 short fiber knob (human adenovirus type 52 (HAdV-52)); assay: as above
[12] = molecular target: HAdV-52 short fiber knob (human adenovirus type 52 (HAdV-52)); assay: crystal structure; 52SFK crystals soaked with 20 mM 2-O-methyl sialic acid; 1.65 Å; threefold NCS

Sequence of Recombinant human CAR (CXADR Fc chimera; full length extracellular D1D2 domain) (human) (P78310 20-237, stated change not applied): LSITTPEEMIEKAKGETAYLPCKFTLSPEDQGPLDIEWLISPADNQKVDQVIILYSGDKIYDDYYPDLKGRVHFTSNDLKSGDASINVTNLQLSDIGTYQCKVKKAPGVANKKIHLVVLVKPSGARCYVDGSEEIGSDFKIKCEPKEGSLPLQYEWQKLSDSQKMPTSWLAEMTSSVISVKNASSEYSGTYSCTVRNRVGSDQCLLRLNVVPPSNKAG

52SFK N308E (domain or fragment)
stoichiometry N [1]: 3

soluble CAR-D1 (domain or fragment)
percent reduction of virion binding to A549 cells [2]: 20% | percent reduction of virion binding to A549 cells [3]: 50%

52SFK N318A (domain or fragment)
stoichiometry N [4]: 3

52SFK R316A (domain or fragment)
stoichiometry N [5]: 3

52SFK R316A/N318A (domain or fragment)
stoichiometry N [6]: 3

HAdV-52 long fiber knob (domain or fragment)
pKd [7]: 8.59 | pKd [8]: 8.30

52SFK R316E/N318A (domain or fragment)
stoichiometry N [9]: 3

52SFK R316E (domain or fragment)
stoichiometry N [10]: 3

HAdV-52 short fiber knob (domain or fragment)
stoichiometry N [11]: 3 | stoichiometry N [12]: 3
